These results are taken from article doi:10.1101/816322 (bioRxiv, 2019).

Test [1] addresses T1, Flag-tagged Trichoplax adhaerens Bcl-2-like protein 1 (trBcl-2L1) (Trichoplax adhaerens, UniProt A0A1B1IJP0 1-215).
T1 sequence (looked up): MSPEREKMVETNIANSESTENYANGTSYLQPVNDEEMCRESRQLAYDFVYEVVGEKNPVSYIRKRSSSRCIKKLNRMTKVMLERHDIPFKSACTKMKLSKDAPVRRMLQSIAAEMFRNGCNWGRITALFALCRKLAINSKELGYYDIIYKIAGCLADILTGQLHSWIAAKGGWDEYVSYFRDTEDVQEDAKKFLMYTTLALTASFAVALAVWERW
Put plainly: FRET or BRET.

The target of test [2] is T2, Flag-tagged Trichoplax adhaerens Bcl-2-like protein 2 (trBcl-2L2) (Trichoplax adhaerens, UniProt A0A1B1IJN9 1-211).
T2 sequence (looked up): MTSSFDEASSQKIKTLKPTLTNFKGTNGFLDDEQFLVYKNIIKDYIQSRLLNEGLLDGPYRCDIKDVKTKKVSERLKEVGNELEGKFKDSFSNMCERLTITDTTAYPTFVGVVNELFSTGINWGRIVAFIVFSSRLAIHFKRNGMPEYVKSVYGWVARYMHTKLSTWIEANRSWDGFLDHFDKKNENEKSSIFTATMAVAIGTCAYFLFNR
In words: FRET or BRET.

B1: EGFP-tagged Trichoplax adhaerens Bax (trBax, trBcl-2L3) (natural protein, UniProt A0A1B1IJP1 1-241, looked up)
chain: MADFTYVLITRSISTIFSSSCLIAMAHVKSVTSTPTTTTTTTTQSCPRREENLKEIAAESKKLFLDFIADRSAKDGQDQGCISQLTREHNELQIEPTSPTIQVARTIRQIGDELDSDPHLNGLLHKLHVTSSTAYSTFRRVAMRIFQDGQFNWGRIITLFFFGYRLTIRVLSESPIVEMIISWIARFIYEICSFWIAESGGWDAITQYIQQADWKNKYTLGLIAVGVLVTAFVTWQRYNSS
With B1, the FRET efficacy is 5.84% in test [1] and 1.97% in test [2].

B2: EGFP-tagged Trichoplax adhaerens Bak (trBak, trBcl-2L4) (natural protein, UniProt A0A1B1IJN7 1-251, looked up)
chain: MSSTITIAESLENGENNDEQEEANTSRSQFRVTRAQVIRRQLSANPAHLPVSEQEVINETSSIFRSFVVESYQAERDGGIIAEEVRSFADQVQSSSNQTITPSSPTSEIGRHLAQLGDSYSVRFQNEFRLMITHLDINPGTAYRTFAGVARRLFRDGISWRRIVTLMAFGYQIAIDVMRSGVQGFLSRICNFIVRFISGEHIANWIARQGGWRAARYEGLASPGWPAIIGVATAAAASVFGVLWLSGYFRE
For B2, the values for the FRET efficacy in test [1] and in test [2] were 11.2% and 5.45%, respectively.
